Test results reported in paper PMC5016229.

Molecular target: RSV F DS-Cav1 (human respiratory syncytial virus | bacteriophage T4) (UniProt P03420)
Assay: SEC

Work on “RSV F DS-Cav1 (from UniProt P03420 26-109; P03420 137-513) (domain or fragment)” yielded a stoichiometry N of 3.
